Measurements as given in US20240343823A1 (Ablynx, published 2024).

Key:
[1] = biological target: human GPC3 on tumor cell lines (HepG2, Huh-7, NCI-H661, MKN-45, NCI-H23, BxPC-3, NCI-H292) (human, UniProt P51654 25-554); experiment: cell-based or functional assay
[2] = biological target: T1, human Glypican-6 (R&D systems, cat no 2845-GP) (human, UniProt Q9Y625 24-529, limits assumed); experiment: ELISA, Glypican-6 coated at 2 ug/mL
T1 construct: Bought; also called GPC6
T1 sequence (looked up): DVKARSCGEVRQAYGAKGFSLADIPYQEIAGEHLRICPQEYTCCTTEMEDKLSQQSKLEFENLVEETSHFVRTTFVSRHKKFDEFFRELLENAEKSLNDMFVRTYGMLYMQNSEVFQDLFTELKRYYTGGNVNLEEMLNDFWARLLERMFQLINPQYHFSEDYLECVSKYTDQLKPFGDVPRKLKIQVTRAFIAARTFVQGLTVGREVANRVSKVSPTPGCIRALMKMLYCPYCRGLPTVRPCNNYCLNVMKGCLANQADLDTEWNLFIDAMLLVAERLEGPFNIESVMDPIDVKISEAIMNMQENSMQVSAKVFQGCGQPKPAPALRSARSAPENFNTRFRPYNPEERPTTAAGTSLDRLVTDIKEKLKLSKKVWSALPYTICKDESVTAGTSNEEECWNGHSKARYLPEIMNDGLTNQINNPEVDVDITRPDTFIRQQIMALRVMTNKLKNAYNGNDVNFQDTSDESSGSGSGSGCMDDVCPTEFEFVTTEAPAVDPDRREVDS
Method: (§1) Human GPC1 (R&D systems, cat no 4519-GP), human GPC2 (R&D systems, cat no 2304-GP), human GPC3 (R&D systems, cat no 2119-GP), human Glypican-5 (R&D systems, cat no 2607-G5) and human Glypican-6 (R&D systems, cat no 2845-GP) were directly coated overnight at 4° C. (2 μg/mL, 1×PBS buffer) on a 384-well HB SpectraPlate (PerkinElmer). The following day the plate was washed 6 times (AquaMax microplate washer, Molecular devices) and blocked with 1×PBS+1% Casein for 2 hours at room temperature. […] After 6 final wash steps the es(HS)TMB substrate (SDT) was added and the reaction stopped by addition of 1 M HCl after 10 minutes. The absorbance of the plate was measured at wavelengths 450 and 620 nm on the Clariostar instrument (BMG LABTECH) and the OD₄₅₀-OD₆₂₀ calculated and plotted for data analysis.

[3] = biological target: T2, human GPC3 expressed on CHO Flp-In cells (human, UniProt P51654 25-554); experiment: flow cytometry on CHO Flp-In human GPC3 cells
T2 construct: On cells; Q25-R358, S359-H580; also called hGPC3 CHO; CHO huGPC3

[4] = biological target: T3, human GPC2 (R&D systems, cat no 2304-GP) (human, UniProt Q8N158 24-554, limits assumed); experiment: ELISA, GPC2 coated at 2 ug/mL
T3 construct: Bought
T3 sequence (looked up): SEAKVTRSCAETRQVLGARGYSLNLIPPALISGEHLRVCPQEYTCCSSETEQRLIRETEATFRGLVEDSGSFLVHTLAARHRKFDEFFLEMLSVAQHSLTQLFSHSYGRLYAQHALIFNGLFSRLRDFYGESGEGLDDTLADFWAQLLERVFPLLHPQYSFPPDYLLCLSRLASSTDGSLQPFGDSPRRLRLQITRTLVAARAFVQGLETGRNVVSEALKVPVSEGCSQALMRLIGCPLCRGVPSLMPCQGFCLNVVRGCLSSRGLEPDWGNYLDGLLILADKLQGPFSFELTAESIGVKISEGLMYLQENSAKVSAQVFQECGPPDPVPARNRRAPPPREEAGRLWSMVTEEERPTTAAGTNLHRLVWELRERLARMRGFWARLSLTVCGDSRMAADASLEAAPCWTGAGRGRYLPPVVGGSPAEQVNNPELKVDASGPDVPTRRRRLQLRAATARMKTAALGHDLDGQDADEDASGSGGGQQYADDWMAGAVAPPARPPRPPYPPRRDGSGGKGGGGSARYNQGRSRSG
Method: as §1

[5] = biological target: T4, human Glypican-5 (R&D systems, cat no 2607-G5) (human, UniProt P78333 25-553, limits assumed); experiment: ELISA, Glypican-5 coated at 2 ug/mL
T4 construct: Bought; also called GPC5
T4 sequence (looked up): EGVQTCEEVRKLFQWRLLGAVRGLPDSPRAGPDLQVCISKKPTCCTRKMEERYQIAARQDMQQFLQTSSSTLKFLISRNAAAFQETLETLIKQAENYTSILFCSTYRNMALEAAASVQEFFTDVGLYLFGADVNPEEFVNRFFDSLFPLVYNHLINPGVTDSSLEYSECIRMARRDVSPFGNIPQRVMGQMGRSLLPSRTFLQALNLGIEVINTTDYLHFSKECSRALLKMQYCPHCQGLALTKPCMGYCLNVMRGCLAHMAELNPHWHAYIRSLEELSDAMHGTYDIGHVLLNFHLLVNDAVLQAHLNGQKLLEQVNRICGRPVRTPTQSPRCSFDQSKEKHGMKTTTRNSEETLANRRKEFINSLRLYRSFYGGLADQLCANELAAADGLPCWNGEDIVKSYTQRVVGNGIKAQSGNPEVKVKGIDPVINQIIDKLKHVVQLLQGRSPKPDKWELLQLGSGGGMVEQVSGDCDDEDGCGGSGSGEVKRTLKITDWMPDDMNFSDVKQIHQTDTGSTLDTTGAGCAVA
Method: as §1

[6] = biological target: T5, Human GPC1 (R&D systems, cat no 4519-GP) (human, UniProt P35052 24-530, limits assumed); experiment: ELISA, GPC1 coated at 2 ug/mL
T5 construct: Bought
T5 sequence (looked up): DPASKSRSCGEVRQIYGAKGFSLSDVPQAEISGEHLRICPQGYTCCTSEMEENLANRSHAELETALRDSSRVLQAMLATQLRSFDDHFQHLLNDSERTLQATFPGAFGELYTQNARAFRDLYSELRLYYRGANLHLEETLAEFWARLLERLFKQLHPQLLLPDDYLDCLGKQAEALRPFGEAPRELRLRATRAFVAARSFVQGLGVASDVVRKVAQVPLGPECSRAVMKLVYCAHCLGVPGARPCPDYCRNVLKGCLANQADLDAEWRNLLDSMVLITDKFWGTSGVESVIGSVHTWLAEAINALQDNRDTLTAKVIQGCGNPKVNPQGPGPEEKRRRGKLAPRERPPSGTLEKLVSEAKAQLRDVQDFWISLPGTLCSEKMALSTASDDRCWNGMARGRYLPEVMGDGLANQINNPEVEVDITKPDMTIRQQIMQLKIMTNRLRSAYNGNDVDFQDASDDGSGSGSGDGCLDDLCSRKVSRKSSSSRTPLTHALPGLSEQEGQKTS
Method: as §1

B1: A022600424 (other)
chain: DVQLVESGGGVVQPGGSLRLSCVASGYVHKINFYGWYRQAPGKEREKVAHISIGDQTDYADSAKGRFTISRDESKNTVYLQMNSLRPEDTAAYYCRALSRIWPYDYWGQGTLVTVSSGGGGSEVQLVESGGGVVQPGGSLRLSCAASGFTFSSFAMTWVRRPPGKGLEWVATITNKGVTSYADSVKGRFTISRDNAKNTLYLQMNSLRPEDTALYICANARRTGPRAPTDIGSYRGQGTLVTVSSGGGGSGGGSEVQLVESGGGVVQPGGSLRLSCAASGSIFRSVFSSSTMEWYRQAPGKKRELVARIAPGEGTYYGALYADSVKGRFTISRDNAKNTVYLQMNSLRPEDTALYYCASGVAWGQGTLVTVSSGGGGSGGGSEVQLVESGGGVVQPGGSLRLSCAASGFTFRSFGMSWVRQAPGKGPEWVSSISGSGSDTLYADSVKGRFTISRDNSKNTLYLQMNSLRPEDTALYYCTIGGSLSRSSQGTLVTVSSA
notes: Trispecific tetravalent ISVD (VHH) T-cell engager: anti-TCR, two anti-GPC3 (biparatopic), anti-albumin; also called TCE01-5GS-A022600351-9GS-A022600314-9GS-ALB23002-A
In the case of B1, the “IC50 (M), xCELLigence TDC assay on Huh-7, Primary cy T cells” value [1] is reported as 2.29e-10 M, the “IC50 (M), xCELLigence TDC assay on Huh-7, Primary hu T cells” value [1] is reported as 7.59e-11 M and the binding result [2] is reported as “no binding”. The EC50 [3] was 1.82 nM, the binding result [4] was “no binding” and the binding result [5] was “no binding”. B1: no binding [6].
